Patent publication US6960559

Test system: T1, cbz-FAF[125I]Y-NH2
T1 sequence: FAFY

B1: papain (enzyme, UniProt P00784 134-345, looked up)
Papain: IPEYVDWRQKGAVTPVKNQGSCGSCWAFSAVVTIEGIIKIRTGNLNEYSEQELLDCDRRSYGCNGGYPWSALQLVAQYGIHYRNTYPYEGVQRYCRSREKGPYAAKTDGVRQVQPYNEGALLYSIANQPVSVVLEAAGKDFQLYRGGIFVGPCGNKVDHAVAAVGYGPNYILIKNSWGTGWGENGYIRIKRGTGNSYGVCGLYTSSFYPVKN
In the case of B1, the Amount necessary to degrade 50% of substrate in 30 min is reported as 2 µg.
